Source: patent publication US12012619B2, “Methods of use for an NADPH-regeneration system based on a monomeric isocitrate dehydrogenase” (INDUSTRY FOUNDATION OF CHONNAM NATIONAL UNIVERSITY, priority 2021, dated 2024)

T1: AvIDH (Azotobacter vinelandii, UniProt P16100)
T1 construct: His-tag (His6, pET24a-derived LEHHHHHH) (C); made in house; host or cells: E. coli BL21 (DE3)
T1 sequence (P16100 with tags, fused parts or gaps): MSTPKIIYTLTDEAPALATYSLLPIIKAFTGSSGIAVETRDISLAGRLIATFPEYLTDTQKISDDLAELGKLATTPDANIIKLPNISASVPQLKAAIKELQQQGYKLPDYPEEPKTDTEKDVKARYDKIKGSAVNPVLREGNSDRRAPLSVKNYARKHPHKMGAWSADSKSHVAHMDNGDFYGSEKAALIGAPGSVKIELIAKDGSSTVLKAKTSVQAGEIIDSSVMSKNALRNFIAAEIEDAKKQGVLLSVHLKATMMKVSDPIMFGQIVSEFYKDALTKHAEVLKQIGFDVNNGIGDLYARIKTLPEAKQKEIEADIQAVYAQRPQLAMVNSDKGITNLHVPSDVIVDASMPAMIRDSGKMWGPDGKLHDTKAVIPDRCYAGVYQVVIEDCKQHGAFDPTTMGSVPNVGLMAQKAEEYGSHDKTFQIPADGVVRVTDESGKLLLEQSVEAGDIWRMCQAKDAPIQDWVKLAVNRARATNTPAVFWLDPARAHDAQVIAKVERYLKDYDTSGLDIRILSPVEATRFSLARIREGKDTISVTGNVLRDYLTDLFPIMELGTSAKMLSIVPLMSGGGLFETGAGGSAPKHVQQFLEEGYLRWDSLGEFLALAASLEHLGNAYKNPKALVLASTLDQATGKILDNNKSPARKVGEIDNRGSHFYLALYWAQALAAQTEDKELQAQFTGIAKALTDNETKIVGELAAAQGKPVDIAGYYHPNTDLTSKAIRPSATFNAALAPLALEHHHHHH

T2: CgIDH (Corynebacterium glutamicum, UniProt P50216)
T2 construct: His-tag (His6, pET24a-derived LEHHHHHH) (C); made in house; host or cells: E. coli BL21 (DE3)
T2 sequence (P50216 with tags, fused parts or gaps): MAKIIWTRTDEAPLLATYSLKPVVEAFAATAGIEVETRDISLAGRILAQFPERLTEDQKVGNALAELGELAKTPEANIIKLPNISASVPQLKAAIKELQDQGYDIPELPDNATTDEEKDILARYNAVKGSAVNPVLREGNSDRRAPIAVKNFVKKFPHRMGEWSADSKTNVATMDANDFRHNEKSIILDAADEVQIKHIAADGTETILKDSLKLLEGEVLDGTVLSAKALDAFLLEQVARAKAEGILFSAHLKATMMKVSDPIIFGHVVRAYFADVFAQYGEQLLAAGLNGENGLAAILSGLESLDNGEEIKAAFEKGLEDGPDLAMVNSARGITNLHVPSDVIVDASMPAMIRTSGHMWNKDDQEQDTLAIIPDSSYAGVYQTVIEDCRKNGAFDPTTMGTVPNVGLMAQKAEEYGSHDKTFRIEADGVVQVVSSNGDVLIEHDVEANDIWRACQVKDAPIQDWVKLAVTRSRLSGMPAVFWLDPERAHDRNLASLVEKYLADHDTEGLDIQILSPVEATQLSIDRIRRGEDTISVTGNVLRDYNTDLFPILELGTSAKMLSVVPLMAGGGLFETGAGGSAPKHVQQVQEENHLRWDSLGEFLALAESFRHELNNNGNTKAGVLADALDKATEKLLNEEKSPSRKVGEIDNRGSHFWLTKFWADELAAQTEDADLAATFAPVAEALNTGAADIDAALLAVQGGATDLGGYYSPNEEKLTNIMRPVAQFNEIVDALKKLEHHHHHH

B1: CgIDH: recombinant monomeric isocitrate dehydrogenase from Corynebacterium glutamicum, SEQ ID NO: 1, C-terminal histidine tag (protein)
chain: T2 sequence (P50216 with tags, fused parts or gaps)
modifications: C-terminal His tag; CgIDH protein
B2: AvIDH: recombinant monomeric isocitrate dehydrogenase from Azotobacter vinelandii, SEQ ID NO: 2, C-terminal histidine tag (protein)
chain: T1 sequence (P16100 with tags, fused parts or gaps)
modifications: C-terminal His tag; AvIDH protein

Experiments:
AvIDH = target: T1, AvIDH; experiment: Enzyme activity inhibitory effect by α-ketoglutarate on AvIDH; format: biochemical; settings: 20 mM α-ketoglutarate added; 5 nM AvIDH
Procedure: (§1) In order to confirm an enzyme activity inhibitory effect by α-ketoglutarate, which is an enzyme reaction product of the recombinant protein produced in the present invention, a reaction product, in which 5 nM of CgIDH and 5 nM AvIDH were each added to a reaction solution containing 100 mM potassium phosphate buffer (pH 7.4), 0.8 mM manganese sulfate, 40 mM DL-isocitric acid, and 0.5 mM NADP, was prepared. Thereafter, α-ketoglutarate was added for each concentration to proceed the reaction as described in Example 5, and the degree of increase of NADPH was measured. Here, an experimental group to which α-ketoglutarate was not added was used as a control group.

CgIDH = target: T2, CgIDH; experiment: Enzyme activity inhibitory effect by α-ketoglutarate on CgIDH; format: biochemical; settings: 10 mM α-ketoglutarate added; 5 nM CgIDH
Procedure: as §1

NADPH regeneration [1] = experiment: Kinetic constant analysis of purified recombinant protein; format: biochemical; settings: wild-type CgIDH and AvIDH parameters as control groups
Procedure: The analysis of kinetic properties related to an enzyme activity of the recombinant protein, that is, a kinetic constant, was performed by the following procedure.
The analysis of kinetic activity for each of the recombinant proteins purified in Example 2 was performed based on the method described in Chen, R. & Yang, H. Biochemistry and Biophysics, 383(2):238-245 (2000); and Watanabe, S. Microbiology 151(4):1083-1094 (2005).
Here, a Km (uM) value representing the affinity of the enzyme to the substrate as a reaction constant used in enzyme kinetics, a Kcat(S-1) value, which means the metabolic turnover number of the enzyme, and a Kcat/Km (S-1, M-1) value representing a reaction efficiency of the enzyme, were determined.

[2] = Storage stability of recombinant protein; format: physicochemical; settings: storage at 4° C. for 30 days; 5 nM enzyme
Procedure: In order to evaluate the stability of the recombinant protein produced in the present invention, after a certain period of time, each of the recombinant proteins stored at 4° C. was added to a reaction solution containing 100 mM potassium phosphate buffer (pH 7.4), 0.8 mM manganese sulfate, 40 mM DL-isocitric acid, and 0.5 mM NADP+ so that the final concentration was 5 nM, the reaction was proceeded as described in Example 5, and the degree of increase of NADPH was measured.

cytochrome P450 BM3 = cytochrome P450 BM3 (Priestia megaterium, UniProt P14779); experiment: Coupling reaction with cytochrome P450 BM3, HPLC analysis of hydroxylation product of substrate; format: biochemical, Bacillus megaterium; settings: coupling reaction 5 min; control = NADPH itself added; CgIDH 10 nM or AvIDH 5 nM, 500 nM P450 BM3, 2 mM omeprazole
Procedure: In the above reaction, in order to confirm that the activity of cytochrome P450 BM3 is maintained by substantial NADPH regeneration, and the hydroxylation reaction of omeprazole, which is one of the substrates, occurs, to 1 mL of a reaction solution containing 100 mM potassium phosphate buffer (pH 7.4), 0.8 mM manganese sulfate, 40 mM DL-isocitric acid, 0.5 mM NADP, and 2 mM omeprazole, CgIDH and cytochrome P450 BM3 were added so that the final concentrations were 10 nM and 500 nM, respectively, and AvIDH and cytochrome P450 BM3 were added so that the final concentrations were 5 nM and 500 nM, respectively, to prepare a reaction product.
The reaction mixture was recovered by 90 uL each time, mixed with 90 uL of methanol to stop the reaction, and then HPLC analysis was performed. Specific HPLC performance conditions are as follows: • HPLC was performed using an Alliance HPLC system (Waters). • A SunFire 18C column was used as a column • The amount of sample loading was set to 20 uL. • As a HPLC mobile phase, 30% acetonitrile was flowed at a flow rate of 1 mL/min, and an eluate was measured with ultraviolet (UV) light at 302 nm. • Analysis was performed using an Empower 3 (Waters) program. […]

NADPH regeneration [3] = experiment: Specific activity analysis of recombinant IDH protein (NADPH increase measured by fluorescence); format: biochemical; settings: 5 nM enzyme; for specific activity: 100 mM potassium phosphate buffer pH 7.4, 0.8 mM MnSO4, 0.8 mM DL-isocitric acid, 0.5 mM NADP+
Procedure: In order to confirm the degree of NADPH regeneration by the activity of the IDH recombinant protein, CgIDH and AvIDH were each added to a reaction solution containing 100 mM potassium phosphate buffer (pH 7.4), 0.8 mM manganese sulfate (MnSO4), 0.8 mM DL-isocitric acid, and 0.5 mM NADP+ so that the final concentrations were 5 nM, and the degree of increase of NADPH depending on the enzyme activity was measured with a spectrophotometer. When fluorescence was measured using a spectrophotometer, an excitation wavelength was set to 350 nm and an emission wavelength was set to 450 nm, and the measurement results are shown in FIG. 7.

Sequence of cytochrome P450 BM3 (P14779 whole entry): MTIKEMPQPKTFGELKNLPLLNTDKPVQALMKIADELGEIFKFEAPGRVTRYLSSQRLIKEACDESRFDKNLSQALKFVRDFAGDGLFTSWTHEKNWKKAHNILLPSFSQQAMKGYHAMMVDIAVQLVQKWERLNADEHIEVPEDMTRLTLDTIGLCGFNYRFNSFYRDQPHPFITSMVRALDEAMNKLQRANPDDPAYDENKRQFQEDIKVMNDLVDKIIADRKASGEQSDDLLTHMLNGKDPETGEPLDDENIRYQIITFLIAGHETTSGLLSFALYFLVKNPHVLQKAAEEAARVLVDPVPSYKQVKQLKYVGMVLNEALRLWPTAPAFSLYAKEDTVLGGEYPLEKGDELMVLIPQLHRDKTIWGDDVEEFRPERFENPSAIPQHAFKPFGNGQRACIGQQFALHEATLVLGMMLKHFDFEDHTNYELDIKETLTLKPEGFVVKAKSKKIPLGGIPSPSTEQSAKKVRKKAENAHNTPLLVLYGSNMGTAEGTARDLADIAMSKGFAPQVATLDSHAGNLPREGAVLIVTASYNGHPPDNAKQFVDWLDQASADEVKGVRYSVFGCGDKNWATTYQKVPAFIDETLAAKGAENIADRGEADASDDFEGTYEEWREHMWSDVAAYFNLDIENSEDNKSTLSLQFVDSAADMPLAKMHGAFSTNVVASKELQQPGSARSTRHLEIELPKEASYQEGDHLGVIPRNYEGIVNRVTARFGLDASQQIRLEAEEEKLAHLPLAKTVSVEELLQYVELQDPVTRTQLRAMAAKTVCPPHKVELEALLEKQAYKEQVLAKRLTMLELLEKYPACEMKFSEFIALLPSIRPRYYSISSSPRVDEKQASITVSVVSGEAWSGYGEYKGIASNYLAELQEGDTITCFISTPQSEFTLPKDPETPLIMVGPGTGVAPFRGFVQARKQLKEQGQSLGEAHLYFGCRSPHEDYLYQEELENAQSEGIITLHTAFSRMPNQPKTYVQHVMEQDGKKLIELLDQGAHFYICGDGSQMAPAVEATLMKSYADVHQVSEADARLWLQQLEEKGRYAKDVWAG

| Molecule | reduction of enzyme activity (AvIDH) [%] | reduction of enzyme activity (CgIDH) [%] | Kcat compared with the wild-types (NADPH regeneration [1]) | enzyme activity after storage [2] | elution amount of 5′-hydroxyomeprazole based on the elution amount produced in the control group (cytochrome P450 BM3) [%] | enzyme activity (enzyme reaction slope) compared with AvIDH at the same amount of protein (NADPH regeneration [3]) | specific activity (NADPH regeneration [3]) [U/mg] |
| --- | --- | --- | --- | --- | --- | --- | --- |
| O=C(O)CCC(=O)C(=O)O [α-ketoglutarate] | 30 | 30 | – | – | – | – | – |
| B1 | – | – | slight decrease | did not decrease | 126 | higher enzyme activity | 57 |
| B2 | – | – | slight decrease | did not decrease | 114 | – | 28 |
